Experiments:
[1] = target: galectin-10 (Gal10), species and tag not stated for the assay (UniProt Q05315); test: competition ELISA; negative control, set as 0% competition; competitor biotinylated g7B07 hFab
[2] = target: galectin-10 (Gal10), species and tag not stated for the assay (UniProt Q05315); test: competition ELISA; negative control; competitor biotinylated g7B07 hFab (detected)

Sequence of galectin-10 (Gal10), species and tag not stated for the assay (Q05315 2-142 limits assumed): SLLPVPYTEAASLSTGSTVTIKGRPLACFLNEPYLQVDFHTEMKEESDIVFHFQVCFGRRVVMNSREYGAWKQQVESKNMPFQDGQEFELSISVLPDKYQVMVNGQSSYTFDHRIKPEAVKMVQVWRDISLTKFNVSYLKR

% Competition against g7B07-Biot [1]: 0%
Mean OD value [2]: 2.51 OD
Substance: Motavizumab in human Fab backbone
